Data: US20220298218A1 (ANTAG THERAPEUTICS, published 2022)
Where no end group is shown, it is not given here. The star is where a group is joined. C16 diacid = O=C(O)CCCCCCCCCCCCCCC(=O)*

Molecular target: T1, human GIP receptor (human, UniProt P48546 22-466)
T1 sequence (looked up): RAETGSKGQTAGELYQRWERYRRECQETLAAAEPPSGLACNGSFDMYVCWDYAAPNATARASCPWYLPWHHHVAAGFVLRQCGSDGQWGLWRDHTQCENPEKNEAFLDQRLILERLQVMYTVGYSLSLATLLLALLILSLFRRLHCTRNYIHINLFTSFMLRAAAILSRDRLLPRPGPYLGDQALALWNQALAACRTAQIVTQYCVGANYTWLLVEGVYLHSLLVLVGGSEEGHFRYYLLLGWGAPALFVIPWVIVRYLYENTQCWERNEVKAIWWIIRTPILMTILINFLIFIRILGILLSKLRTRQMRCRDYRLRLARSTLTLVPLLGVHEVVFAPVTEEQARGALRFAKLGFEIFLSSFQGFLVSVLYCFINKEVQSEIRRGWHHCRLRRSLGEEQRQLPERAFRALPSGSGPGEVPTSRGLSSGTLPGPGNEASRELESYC
Assay: cell-based or functional assay

B1: AT620 (peptide)
peptide: EGTFISDYSIAEDKIK(C16 diacid)QQDFVNWLLAQKPSSGAPPPS-OH
modifications: N-terminus assumed
SMILES: CC[C@H](C)[C@H](NC(=O)[C@H](CO)NC(=O)[C@H](Cc1ccc(O)cc1)NC(=O)[C@H](CC(=O)O)NC(=O)[C@H](CO)NC(=O)[C@@H](NC(=O)[C@H](Cc1ccccc1)NC(=O)[C@@H](NC(=O)CNC(=O)[C@@H](N)CCC(=O)O)[C@@H](C)O)[C@@H](C)CC)C(=O)N[C@@H](C)C(=O)N[C@@H](CCC(=O)O)C(=O)N[C@@H](CC(=O)O)C(=O)N[C@@H](CCCCN)C(=O)N[C@H](C(=O)N[C@@H](CCCCNC(=O)CCCCCCCCCCCCCCC(=O)O)C(=O)N[C@@H](CCC(N)=O)C(=O)N[C@@H](CCC(N)=O)C(=O)N[C@@H](CC(=O)O)C(=O)N[C@@H](Cc1ccccc1)C(=O)N[C@H](C(=O)N[C@@H](CC(N)=O)C(=O)N[C@@H](Cc1c[nH]c2ccccc12)C(=O)N[C@@H](CC(C)C)C(=O)N[C@@H](CC(C)C)C(=O)N[C@@H](C)C(=O)N[C@@H](CCC(N)=O)C(=O)N[C@@H](CCCCN)C(=O)N1CCC[C@H]1C(=O)N[C@@H](CO)C(=O)N[C@@H](CO)C(=O)NCC(=O)N[C@@H](C)C(=O)N1CCC[C@H]1C(=O)N1CCC[C@H]1C(=O)N1CCC[C@H]1C(=O)N[C@@H](CO)C(=O)O)C(C)C)[C@@H](C)CC
  cAMP agonism % Emax: 0%
  cAMP antagonism: 31.6 nM
  cAMP antagonism % inhib: 83%
  cAMP antagonism pIC50: 7.5

B2: AT622 (peptide)
peptide: EGTFISDYSIASDKIK(C16 diacid)QQDFVNWLLAQKPSSGAPPPS-OH
modifications: N-terminus assumed
SMILES: CC[C@H](C)[C@H](NC(=O)[C@H](CO)NC(=O)[C@H](Cc1ccc(O)cc1)NC(=O)[C@H](CC(=O)O)NC(=O)[C@H](CO)NC(=O)[C@@H](NC(=O)[C@H](Cc1ccccc1)NC(=O)[C@@H](NC(=O)CNC(=O)[C@@H](N)CCC(=O)O)[C@@H](C)O)[C@@H](C)CC)C(=O)N[C@@H](C)C(=O)N[C@@H](CO)C(=O)N[C@@H](CC(=O)O)C(=O)N[C@@H](CCCCN)C(=O)N[C@H](C(=O)N[C@@H](CCCCNC(=O)CCCCCCCCCCCCCCC(=O)O)C(=O)N[C@@H](CCC(N)=O)C(=O)N[C@@H](CCC(N)=O)C(=O)N[C@@H](CC(=O)O)C(=O)N[C@@H](Cc1ccccc1)C(=O)N[C@H](C(=O)N[C@@H](CC(N)=O)C(=O)N[C@@H](Cc1c[nH]c2ccccc12)C(=O)N[C@@H](CC(C)C)C(=O)N[C@@H](CC(C)C)C(=O)N[C@@H](C)C(=O)N[C@@H](CCC(N)=O)C(=O)N[C@@H](CCCCN)C(=O)N1CCC[C@H]1C(=O)N[C@@H](CO)C(=O)N[C@@H](CO)C(=O)NCC(=O)N[C@@H](C)C(=O)N1CCC[C@H]1C(=O)N1CCC[C@H]1C(=O)N1CCC[C@H]1C(=O)N[C@@H](CO)C(=O)O)C(C)C)[C@@H](C)CC
  cAMP agonism % Emax: 14%
  cAMP antagonism: 31.6 nM
  cAMP antagonism % inhib: 77%
  cAMP antagonism pIC50: 7.5

B3: AT624 (peptide)
peptide: EGTFISDYSIAMDKIK(C16 diacid)QQDFVNWLEAQKPSSGAPPPS-OH
modifications: N-terminus assumed
SMILES: CC[C@H](C)[C@H](NC(=O)[C@H](CO)NC(=O)[C@H](Cc1ccc(O)cc1)NC(=O)[C@H](CC(=O)O)NC(=O)[C@H](CO)NC(=O)[C@@H](NC(=O)[C@H](Cc1ccccc1)NC(=O)[C@@H](NC(=O)CNC(=O)[C@@H](N)CCC(=O)O)[C@@H](C)O)[C@@H](C)CC)C(=O)N[C@@H](C)C(=O)N[C@@H](CCSC)C(=O)N[C@@H](CC(=O)O)C(=O)N[C@@H](CCCCN)C(=O)N[C@H](C(=O)N[C@@H](CCCCNC(=O)CCCCCCCCCCCCCCC(=O)O)C(=O)N[C@@H](CCC(N)=O)C(=O)N[C@@H](CCC(N)=O)C(=O)N[C@@H](CC(=O)O)C(=O)N[C@@H](Cc1ccccc1)C(=O)N[C@H](C(=O)N[C@@H](CC(N)=O)C(=O)N[C@@H](Cc1c[nH]c2ccccc12)C(=O)N[C@@H](CC(C)C)C(=O)N[C@@H](CCC(=O)O)C(=O)N[C@@H](C)C(=O)N[C@@H](CCC(N)=O)C(=O)N[C@@H](CCCCN)C(=O)N1CCC[C@H]1C(=O)N[C@@H](CO)C(=O)N[C@@H](CO)C(=O)NCC(=O)N[C@@H](C)C(=O)N1CCC[C@H]1C(=O)N1CCC[C@H]1C(=O)N1CCC[C@H]1C(=O)N[C@@H](CO)C(=O)O)C(C)C)[C@@H](C)CC
  cAMP agonism % Emax: 0%
  cAMP antagonism: 100 nM
  cAMP antagonism % inhib: ~90%
  cAMP antagonism pIC50: ~7

B4: AT625 (peptide)
peptide: EGTFISDYSIAMDKIK(C16 diacid)QQDFVNWLLEQKPSSGAPPPS-OH
modifications: N-terminus assumed
SMILES: CC[C@H](C)[C@H](NC(=O)[C@H](CO)NC(=O)[C@H](Cc1ccc(O)cc1)NC(=O)[C@H](CC(=O)O)NC(=O)[C@H](CO)NC(=O)[C@@H](NC(=O)[C@H](Cc1ccccc1)NC(=O)[C@@H](NC(=O)CNC(=O)[C@@H](N)CCC(=O)O)[C@@H](C)O)[C@@H](C)CC)C(=O)N[C@@H](C)C(=O)N[C@@H](CCSC)C(=O)N[C@@H](CC(=O)O)C(=O)N[C@@H](CCCCN)C(=O)N[C@H](C(=O)N[C@@H](CCCCNC(=O)CCCCCCCCCCCCCCC(=O)O)C(=O)N[C@@H](CCC(N)=O)C(=O)N[C@@H](CCC(N)=O)C(=O)N[C@@H](CC(=O)O)C(=O)N[C@@H](Cc1ccccc1)C(=O)N[C@H](C(=O)N[C@@H](CC(N)=O)C(=O)N[C@@H](Cc1c[nH]c2ccccc12)C(=O)N[C@@H](CC(C)C)C(=O)N[C@@H](CC(C)C)C(=O)N[C@@H](CCC(=O)O)C(=O)N[C@@H](CCC(N)=O)C(=O)N[C@@H](CCCCN)C(=O)N1CCC[C@H]1C(=O)N[C@@H](CO)C(=O)N[C@@H](CO)C(=O)NCC(=O)N[C@@H](C)C(=O)N1CCC[C@H]1C(=O)N1CCC[C@H]1C(=O)N1CCC[C@H]1C(=O)N[C@@H](CO)C(=O)O)C(C)C)[C@@H](C)CC
  cAMP agonism % Emax: 0%
  cAMP antagonism: 3.98 nM
  cAMP antagonism % inhib: 93%
  cAMP antagonism pIC50: 8.4

B5: AT623 (peptide)
peptide: EGTFISDYSIAMDKIK(C16 diacid)QQDFVEWLLAQAPSSGAPPPS-OH
modifications: N-terminus assumed
SMILES: CC[C@H](C)[C@H](NC(=O)[C@H](CO)NC(=O)[C@H](Cc1ccc(O)cc1)NC(=O)[C@H](CC(=O)O)NC(=O)[C@H](CO)NC(=O)[C@@H](NC(=O)[C@H](Cc1ccccc1)NC(=O)[C@@H](NC(=O)CNC(=O)[C@@H](N)CCC(=O)O)[C@@H](C)O)[C@@H](C)CC)C(=O)N[C@@H](C)C(=O)N[C@@H](CCSC)C(=O)N[C@@H](CC(=O)O)C(=O)N[C@@H](CCCCN)C(=O)N[C@H](C(=O)N[C@@H](CCCCNC(=O)CCCCCCCCCCCCCCC(=O)O)C(=O)N[C@@H](CCC(N)=O)C(=O)N[C@@H](CCC(N)=O)C(=O)N[C@@H](CC(=O)O)C(=O)N[C@@H](Cc1ccccc1)C(=O)N[C@H](C(=O)N[C@@H](CCC(=O)O)C(=O)N[C@@H](Cc1c[nH]c2ccccc12)C(=O)N[C@@H](CC(C)C)C(=O)N[C@@H](CC(C)C)C(=O)N[C@@H](C)C(=O)N[C@@H](CCC(N)=O)C(=O)N[C@@H](C)C(=O)N1CCC[C@H]1C(=O)N[C@@H](CO)C(=O)N[C@@H](CO)C(=O)NCC(=O)N[C@@H](C)C(=O)N1CCC[C@H]1C(=O)N1CCC[C@H]1C(=O)N1CCC[C@H]1C(=O)N[C@@H](CO)C(=O)O)C(C)C)[C@@H](C)CC
  cAMP agonism % Emax: 0%
  cAMP antagonism: 3.16 nM
  cAMP antagonism % inhib: 98%
  cAMP antagonism pIC50: 8.5

B6: AT621 (peptide)
peptide: EGTFISDYSIAKDKIK(C16 diacid)QQDFVNWLLAQKPSSGAPPPS-OH
modifications: N-terminus assumed
SMILES: CC[C@H](C)[C@H](NC(=O)[C@H](CO)NC(=O)[C@H](Cc1ccc(O)cc1)NC(=O)[C@H](CC(=O)O)NC(=O)[C@H](CO)NC(=O)[C@@H](NC(=O)[C@H](Cc1ccccc1)NC(=O)[C@@H](NC(=O)CNC(=O)[C@@H](N)CCC(=O)O)[C@@H](C)O)[C@@H](C)CC)C(=O)N[C@@H](C)C(=O)N[C@@H](CCCCN)C(=O)N[C@@H](CC(=O)O)C(=O)N[C@@H](CCCCN)C(=O)N[C@H](C(=O)N[C@@H](CCCCNC(=O)CCCCCCCCCCCCCCC(=O)O)C(=O)N[C@@H](CCC(N)=O)C(=O)N[C@@H](CCC(N)=O)C(=O)N[C@@H](CC(=O)O)C(=O)N[C@@H](Cc1ccccc1)C(=O)N[C@H](C(=O)N[C@@H](CC(N)=O)C(=O)N[C@@H](Cc1c[nH]c2ccccc12)C(=O)N[C@@H](CC(C)C)C(=O)N[C@@H](CC(C)C)C(=O)N[C@@H](C)C(=O)N[C@@H](CCC(N)=O)C(=O)N[C@@H](CCCCN)C(=O)N1CCC[C@H]1C(=O)N[C@@H](CO)C(=O)N[C@@H](CO)C(=O)NCC(=O)N[C@@H](C)C(=O)N1CCC[C@H]1C(=O)N1CCC[C@H]1C(=O)N1CCC[C@H]1C(=O)N[C@@H](CO)C(=O)O)C(C)C)[C@@H](C)CC
  cAMP agonism % Emax: 0%
  cAMP antagonism: 1.36 nM
  cAMP antagonism % inhib: 93%
  cAMP antagonism pIC50: 8.9
